For one substance, % CR9501 binding after 5 days and % concentration measured with CR9501 after 5 days results are on record in patent US20160102123A1.

One assay concerns the target A2_F24 VI56IV (RSV A2) (UniProt P03420). The assay can be described thus: Octet BLI endpoint, CR9501 on sensor, culture supernatant.
For assay [1], the target named is B1_N67I, S215P loop (RSV B1) (UniProt O36634). The assay is described as follows: quantitative Octet, CR9501 on sensor, culture supernatant.
Another assay has as its target B1_N67I, S215P (RSV B1) (UniProt O36634). The description is as above.

CR9501 (antibody) had a % CR9501 binding after 5 days at 4 C relative to day 1 in the assay with A2_F24 VI56IV (RSV A2) of 54%. Besides, the % concentration measured with CR9501 after 5 days at 4 C relative to day of harvest worked out at 108% in assay [1] and 90.9% in the assay with B1_N67I, S215P (RSV B1).
